Laboratory results taken from patent publication US20200087363A1 (IMMATICS BIOTECHNOLOGIES, published 2020).

Each binder was assayed against T1, HLA-B*44:05 (human) (assay: UV peptide exchange, anti-b2m ELISA).
T1 construct: also called peptide-receptive MHC class I molecule
Method in brief: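 Peptide-receptive HLA-B*44:05 monomers after UV-induced exchange were diluted 100-fold and captured on streptavidin-coated plates for 1 h at 37 °C. Bound complexes were detected with 2 µg/ml HRP-anti-β2m (1 h, 37 °C) and TMB, read at 450 nm. β2m signal reflects peptide-stabilized complex yield.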

TEAQRLDCW was tested. Which peptide exchange yield did it give?
The peptide exchange yield was 50 to 75%.

How did the peptide exchange yield turn out when TEGGTQKTF was run?
The peptide exchange yield was 50 to 75%.

EESLLSSWDF was tested. Which peptide exchange yield did it give?
Its peptide exchange yield is 50 to 75%.

For RLNEHPSNNW, which peptide exchange yield is on record?
The peptide exchange yield was 20 to 50%.

Which peptide exchange yield does the source give for SEENTGKTY here?
Its peptide exchange yield is 50 to 75%.

Which peptide exchange yield does the source give for EENIVAIGI here?
Its peptide exchange yield is 50 to 75%.

AEAEEAMKRL was tested. Which peptide exchange yield did it give?
The peptide exchange yield was 50 to 75%.

Which peptide exchange yield does the source give for SECVKSLSF here?
Its peptide exchange yield is greater than 75%.

For SLAELIAKDW, which peptide exchange yield is on record?
Its peptide exchange yield is 20 to 50%.

GEGTLRLSW was tested. Which peptide exchange yield did it give?
Its peptide exchange yield is greater than 75%.

For SEAGLTANQY, which peptide exchange yield is on record?
The peptide exchange yield was 50 to 75%.

QETNKVETY was tested. Which peptide exchange yield did it give?
Its peptide exchange yield is 50 to 75%.

With AEVGDIIKVHF as the binder, how does the peptide exchange yield read?
Its peptide exchange yield is 50 to 75%.

With NEIDIHSIYF as the binder, how does the peptide exchange yield read?
The peptide exchange yield was greater than 75%.

SEYPTKNYV was tested. Which peptide exchange yield did it give?
Its peptide exchange yield is 20 to 50%.

For LETSCGSSTAY, which peptide exchange yield is on record?
Its peptide exchange yield is 10 to 20%.

How did the peptide exchange yield turn out when KEPSQSCIAQY was run?
The peptide exchange yield was 10 to 20%.

With AAFEDAQGHIW as the binder, how does the peptide exchange yield read?
Its peptide exchange yield is greater than 75%.

TEQSLYYRQW was tested. Which peptide exchange yield did it give?
Its peptide exchange yield is 50 to 75%.

Which peptide exchange yield does the source give for MEVDPIGHLYIF here?
Its peptide exchange yield is greater than 75%.

Which peptide exchange yield does the source give for AEVGDIIKV here?
Its peptide exchange yield is 20 to 50%.

With EEIFKTLNY as the binder, how does the peptide exchange yield read?
Its peptide exchange yield is 50 to 75%.

QETLAESTW was tested. Which peptide exchange yield did it give?
The peptide exchange yield was 50 to 75%.

KEFYPVKEF was tested. Which peptide exchange yield did it give?
Its peptide exchange yield is 20 to 50%.

For SESDLVNFI, which peptide exchange yield is on record?
The peptide exchange yield was 50 to 75%.

Which peptide exchange yield does the source give for AETSYVKVLEY here?
Its peptide exchange yield is 50 to 75%.

Which peptide exchange yield does the source give for SEIDEKVTDL here?
The peptide exchange yield was 50 to 75%.

How did the peptide exchange yield turn out when DENIQKFIW was run?
The peptide exchange yield was 50 to 75%.

For AELFLTKSF, which peptide exchange yield is on record?
The peptide exchange yield was greater than 75%.

Which peptide exchange yield does the source give for QTLKAMVQAW here?
Its peptide exchange yield is 50 to 75%.

SEESAGPLL was tested. Which peptide exchange yield did it give?
Its peptide exchange yield is 50 to 75%.

With MDELEEGESY as the binder, how does the peptide exchange yield read?
Its peptide exchange yield is 10 to 20%.

With YQENPRAAW as the binder, how does the peptide exchange yield read?
Its peptide exchange yield is 20 to 50%.

With ELVHMINW as the binder, how does the peptide exchange yield read?
The peptide exchange yield was 20 to 50%.

TELADLDAAW was tested. Which peptide exchange yield did it give?
The peptide exchange yield was greater than 75%.

For TEFSNHINL, which peptide exchange yield is on record?
Its peptide exchange yield is 50 to 75%.

With EESLLSSW as the binder, how does the peptide exchange yield read?
The peptide exchange yield was 50 to 75%.

With GEARGDQVDW as the binder, how does the peptide exchange yield read?
The peptide exchange yield was greater than 75%.

For SVISDSPRSW, which peptide exchange yield is on record?
The peptide exchange yield was 50 to 75%.

Which peptide exchange yield does the source give for TEGAVEVKY here?
Its peptide exchange yield is 20 to 50%.

How did the peptide exchange yield turn out when AEVTLNNTI was run?
The peptide exchange yield was 50 to 75%.

GEKATMQNL was tested. Which peptide exchange yield did it give?
Its peptide exchange yield is 20 to 50%.

Which peptide exchange yield does the source give for AELEGALQKA here?
The peptide exchange yield was 20 to 50%.
